Entries after “also recorded” stand apart in the source; their conditions may differ.
How the values were obtained:
Format in all cases: physicochemical
[1] = Phase diagrams / liquid-liquid phase separation (turbidity at 500 nm, optical and confocal microscopy); conditions: 0.2 M NaCl; for liquid-liquid phase separation (LLPS) / droplet formation, in words: as a function of peptide concentration and pH; for peptide concentration at which phase separation is observed: pH increased until turbidity appeared
Experimental: 150 μl of 5, 10, 20 and 30 mM peptide solutions were prepared in 20 mM of the suitable buffer (citrate buffer for a pH range of 3-6, tris buffer for pH range of 7-9 and ammonium bicarbonate to a pH range of 9-12) with 0.2 M NaCl. The pH was increased gradually until a turbidity appeared and measured as described below. The turbidity of 35 μl was measured in triplicates at λ=500 nm. This process repeated at higher pH, the pH increased until the turbidity faded, and a sediment appeared. All experiments were performed in triplicates and the presented value is the average.
150 μl of 20 μM peptide solutions were prepared in 20 mM Tris buffer. The pH was adjusted to the desired value of 6, 7, 8, 9, 10 and 11. The turbidity of 35 μl was measured in triplicates at λ=500 nm.
All samples were imaged in a 96 Well Black Glass bottom plate, glass 1.5H (made by Hangzhou Xinyou, and purchased from Danyel Biotech) 10 minutes after preparation. The images were taken by Zeiss Zen 900 confocal microscope with ×20/0.8 NA Plan-Apochromat air objective. The light microscopy images were taken at PMT mode. PMT imaging were taken with 561 nm laser and fluorescence imaging were taken with 488, 561 and 405 nm lasers for fluorescein, rhodamine B and GFP, respectively.
A phase diagram was created by increasing the pH at various peptide concentrations until a visible turbidity occurred. The turbidity was measured as the absorbance at λ=500 nm. To confirm that the turbidity occurred as a result of coacervation rather than precipitation, we performed an optical microscopy analysis of 20 mM peptide solution at pH 8.

[2] = Fluorescence recovery after photobleaching (FRAP) of peptide droplets; conditions: for apparent diffusion coefficient, comparison in words: among the four LLPS-promoting peptides; for Apparent diffusion coefficient D: droplets prepared with 0.5% FITC labeled peptide, calculated from recovery time; for mobility and dynamics of the droplets: unit not given
Experimental: FRAP experiments were performed by a Zeiss Zen 900 confocal microscope with ×20/0.8 NA Plan-Apochromat air objective. A circular area with radius of 2.5 μm was bleached with a 488 nm laser 100% intensity at 10 iterations; subsequent recovery of the bleached area was recorded with a 488 nm laser. Photobleaching correction and recovery time were calculated using OriginLab. The final FRAP recovery curve is the average of recovery curves collected from five separate droplets.
A fluorescence […] after photo bleaching (FRAP) used to evaluate the diffusion of the droplets. The droplets were prepared with 0.5% of FITC labeled peptide and were observed by confocal microscope. The apparent diffusion coefficients were calculated as followed: […]

[3] = Encapsulation efficiency of fluorescent payloads in peptide droplets; conditions: 20 mM peptide, 20 mM Tris + 0.2 M NaCl, pH 8
Experimental: 1 mM Stock solutions of the fluorescein and Rhodamine B dye molecules were prepared in 20 mM Tris buffer. A 20 mM peptide coacervated solutions were prepared in 20 mM Tris+0.2 M NaCl at pH 8. A 148.5 μl of peptide solution was mixed with 1.5 μl of dye solution in a 1.5 ml Eppendorf tube and was pipetted. The 15 μl of GFP solution was added to 135 μl of peptide solution and was mixed in a 1.5 ml Eppendorf tube and was pipetted. After 10 minutes the samples were centrifuged at 15,000 rcf for 10 minutes. A volume of 120 μl from the supernatant was collected and vortexed and then the absorbance of 35 μl triplicates was measured in a 384 well black plate by Biotek H1 synergy plate reader (purchased from Lumitron, Israel). For GFP, a 7.5 μl of 20 mM Tris buffer to a 7.5 μl GFP aliquot from the purchased stock solution. The 15 μl of GFP solution was added to 135 μl of peptide solution and was mixed in a 1.5 ml Eppendorf tube and was pipetted. The concentration of GFP at the supernatant was measured via fluorescence. All experiments were performed in triplicate. The concentration of the supernatant solutions determinate by calibration curves. Imaging was made to 30 μl of uncentrifuged samples.
LLPS are widely known for the ability to encapsulate small molecules or proteins. This characteristic is important for drug delivery and to exploits coacervate as microreactors. In order to investigate the encapsulation capacity of the designed peptides two fluorescent dyes were used (fluorescein and rhodamine B) and the protein GFP. The peptides WGR-1, WGR-3, WGR-4 and WGR-5 were chosen for this experiment for their diverse chemical characteristics. The encapsulation efficiency was measured via bulk measurements and images of the droplets with the dyes were taken in a fluorescence confocal microscope.

WGKGKGKGWPGVGY
liquid-liquid phase separation (LLPS) / droplet formation, in words [1]: showed no visual turbidity; also recorded: LLPS was not observed

WGRGRGRGWPGVG (WGRGRGRGWPGVGF) [WGR-2]
liquid-liquid phase separation (LLPS) / droplet formation, in words [1]: arrested phase separation; also recorded: LLPS was not observed

WGRGRGRGWPGVGF [WGR-3]
apparent diffusion coefficient, comparison in words ([2]; FRAP): largest apparent diffusion coefficient | apparent diffusion coefficient (D), fold larger than that of WGR-5 ([2]; FRAP, compared with WGR-5): more than 5 fold | Apparent diffusion coefficient D ([2]; FRAP): 5.52E−14 m^2 sec^−1 | encapsulation efficiency of GFP, in words [3]: lowest encapsulation efficiency | encapsulation efficiency of fluorescein, in words [3]: lowest encapsulation efficiency | liquid-liquid phase separation (LLPS) / droplet formation, in words [1]: created LLPS at higher pH value comparing to WGR-1

WGRGRGRGWPGVGY [WGR-1]
Apparent diffusion coefficient D ([2]; FRAP): 4.518E−14 m^2 sec^−1 | mobility and dynamics of the droplets [2]: 4.52E-14 | encapsulation efficiency of fluorescein, in words [3]: no significant difference

WGRGRGRGWY [WGR-4]
apparent diffusion coefficient, comparison in words ([2]; FRAP): lower diffusion coefficient than WGR-1 | Apparent diffusion coefficient D ([2]; FRAP): 2.36E−14 m^2 sec^−1 | mobility and dynamics of the droplets [2]: 2.36E-14 | encapsulation efficiency of GFP, in words [3]: highest encapsulation efficiency | encapsulation efficiency of fluorescein, in words [3]: no significant difference | liquid-liquid phase separation (LLPS) / droplet formation, in words [1]: exhibit phase separation at more moderate conditions | peptide concentration at which phase separation is observed [1]: 5 mM

WGRGRGWPGVGY [WGR-5]
apparent diffusion coefficient, comparison in words ([2]; FRAP): lowest diffusion | Apparent diffusion coefficient D ([2]; FRAP): 9.27E−15 m^2 sec^−1 | encapsulation efficiency of GFP, in words [3]: compromised encapsulation efficiency | liquid-liquid phase separation (LLPS) / droplet formation, in words [1]: perform a phase separation at similar conditions to WGR-4 | peptide concentration at which phase separation is observed [1]: 5 mM

From patent US20240245613A1, “PEPTIDE LIQUID DROPLETS AND METHODS OF USING THE SAME” (RAMOT AT TEL AVIV UNIVERSITY LTD., priority 2021, published 2024)
